Reference: patent US20110171242A1

Molecular target: LTβR (whole, in cells) (human) (UniProt P36941)
Experiment: cell-based or functional assay

## recombinant soluble LTα1β2 (from UniProt P01374 35-205; Q06643 49-244) (ligand)
  IC50 for inhibition of HCMV pp28 expression (western blot): 1 nM
  inhibition of the cytopathic effect of HCMV, against LTα and LIGHT: 10 fold
